Results from the Human Domainome abundance scans (Beltran et al. 2025).
± gives the uncertainty stated by the source.

Test: abundance fitness (aPCA) (normalised: wild type 0, dead -1); higher = more abundant; growth selection in yeast, the domain comes from the species named
Details: Homo sapiens

Substance | abundance fitness
DnaJ homolog subfamily B member 1 A12C, P25685 | -0.213 ± 0.14
DnaJ homolog subfamily B member 1 A12D, P25685 | -0.38 ± 0.11
DnaJ homolog subfamily B member 1 A12E, P25685 | -0.277 ± 0.13
DnaJ homolog subfamily B member 1 A12F, P25685 | -0.346 ± 0.092
DnaJ homolog subfamily B member 1 A12G, P25685 | -0.421 ± 0.1
DnaJ homolog subfamily B member 1 A12H, P25685 | -0.175 ± 0.15
DnaJ homolog subfamily B member 1 A12I, P25685 | -0.163 ± 0.11
DnaJ homolog subfamily B member 1 A12K, P25685 | -0.02 ± 0.077
DnaJ homolog subfamily B member 1 A12L, P25685 | -0.179 ± 0.068
DnaJ homolog subfamily B member 1 A12M, P25685 | -0.139 ± 0.067
DnaJ homolog subfamily B member 1 A12N, P25685 | -0.147 ± 0.089
DnaJ homolog subfamily B member 1 A12P, P25685 | -0.108 ± 0.12
DnaJ homolog subfamily B member 1 A12Q, P25685 | -0.094 ± 0.094
DnaJ homolog subfamily B member 1 A12R, P25685 | -0.147 ± 0.07
DnaJ homolog subfamily B member 1 A12S, P25685 | -0.191 ± 0.078
DnaJ homolog subfamily B member 1 A12T, P25685 | -0.28 ± 0.088
DnaJ homolog subfamily B member 1 A12V, P25685 | -0.145 ± 0.08
DnaJ homolog subfamily B member 1 A12Y, P25685 | -0.559 ± 0.46
DnaJ homolog subfamily B member 1 A15C, P25685 | -0.056 ± 0.14
DnaJ homolog subfamily B member 1 A15D, P25685 | -0.502 ± 0.092
DnaJ homolog subfamily B member 1 A15E, P25685 | -0.481 ± 0.068
DnaJ homolog subfamily B member 1 A15F, P25685 | -0.814 ± 0.13
DnaJ homolog subfamily B member 1 A15H, P25685 | -0.866 ± 0.15
DnaJ homolog subfamily B member 1 A15I, P25685 | -0.69 ± 0.14
DnaJ homolog subfamily B member 1 A15K, P25685 | -0.818 ± 0.096
DnaJ homolog subfamily B member 1 A15L, P25685 | -0.801 ± 0.071

Substance | abundance fitness
DnaJ homolog subfamily B member 1 A15M, P25685 | -0.627 ± 0.1
DnaJ homolog subfamily B member 1 A15N, P25685 | -0.668 ± 0.14
DnaJ homolog subfamily B member 1 A15P, P25685 | -0.702 ± 0.098
DnaJ homolog subfamily B member 1 A15Q, P25685 | -0.648 ± 0.12
DnaJ homolog subfamily B member 1 A15R, P25685 | -0.82 ± 0.055
DnaJ homolog subfamily B member 1 A15S, P25685 | -0.109 ± 0.074
DnaJ homolog subfamily B member 1 A15T, P25685 | -0.271 ± 0.078
DnaJ homolog subfamily B member 1 A15W, P25685 | -1.17 ± 0.085
DnaJ homolog subfamily B member 1 A15Y, P25685 | -1 ± 0.16
DnaJ homolog subfamily B member 1 A23C, P25685 | -0.169 ± 0.11
DnaJ homolog subfamily B member 1 A23D, P25685 | -0.852 ± 0.22
DnaJ homolog subfamily B member 1 A23E, P25685 | -0.149 ± 0.086
DnaJ homolog subfamily B member 1 A23F, P25685 | -0.816 ± 0.1
DnaJ homolog subfamily B member 1 A23G, P25685 | -0.184 ± 0.08
DnaJ homolog subfamily B member 1 A23H, P25685 | -0.312 ± 0.14
DnaJ homolog subfamily B member 1 A23I, P25685 | -0.819 ± 0.11
DnaJ homolog subfamily B member 1 A23K, P25685 | -0.612 ± 0.11
DnaJ homolog subfamily B member 1 A23L, P25685 | -0.839 ± 0.053
DnaJ homolog subfamily B member 1 A23M, P25685 | -0.328 ± 0.068
DnaJ homolog subfamily B member 1 A23N, P25685 | -0.169 ± 0.12
DnaJ homolog subfamily B member 1 A23P, P25685 | -0.917 ± 0.095
DnaJ homolog subfamily B member 1 A23Q, P25685 | -0.241 ± 0.13
DnaJ homolog subfamily B member 1 A23R, P25685 | -0.442 ± 0.066
DnaJ homolog subfamily B member 1 A23S, P25685 | -0.159 ± 0.056
DnaJ homolog subfamily B member 1 A23T, P25685 | -0.339 ± 0.11
DnaJ homolog subfamily B member 1 A23W, P25685 | -0.984 ± 0.09

Substance | abundance fitness
DnaJ homolog subfamily B member 1 A23Y, P25685 | -0.665 ± 0.097
DnaJ homolog subfamily B member 1 A28D, P25685 | -0.521 ± 0.21
DnaJ homolog subfamily B member 1 A28E, P25685 | -0.116 ± 0.12
DnaJ homolog subfamily B member 1 A28F, P25685 | 0.079 ± 0.14
DnaJ homolog subfamily B member 1 A28G, P25685 | -0.106 ± 0.086
DnaJ homolog subfamily B member 1 A28I, P25685 | 0.093 ± 0.095
DnaJ homolog subfamily B member 1 A28K, P25685 | -0.149 ± 0.083
DnaJ homolog subfamily B member 1 A28L, P25685 | -0.032 ± 0.065
DnaJ homolog subfamily B member 1 A28M, P25685 | -0.06 ± 0.088
DnaJ homolog subfamily B member 1 A28N, P25685 | -0.119 ± 0.12
DnaJ homolog subfamily B member 1 A28P, P25685 | -0.953 ± 0.16
DnaJ homolog subfamily B member 1 A28Q, P25685 | 0.084 ± 0.16
DnaJ homolog subfamily B member 1 A28R, P25685 | 0.033 ± 0.09
DnaJ homolog subfamily B member 1 A28S, P25685 | -0.172 ± 0.11
DnaJ homolog subfamily B member 1 A28T, P25685 | -0.094 ± 0.1
DnaJ homolog subfamily B member 1 A28V, P25685 | 0.043 ± 0.081
DnaJ homolog subfamily B member 1 A28W, P25685 | 0.024 ± 0.11
DnaJ homolog subfamily B member 1 A28Y, P25685 | 0.007 ± 0.14
DnaJ homolog subfamily B member 1 A41D, P25685 | -0.036 ± 0.13
DnaJ homolog subfamily B member 1 A41E, P25685 | -0.009 ± 0.11
DnaJ homolog subfamily B member 1 A41F, P25685 | -0.128 ± 0.25
DnaJ homolog subfamily B member 1 A41G, P25685 | -0.104 ± 0.067
DnaJ homolog subfamily B member 1 A41H, P25685 | -0.24 ± 0.096
DnaJ homolog subfamily B member 1 A41I, P25685 | -0.132 ± 0.17
DnaJ homolog subfamily B member 1 A41K, P25685 | -0.178 ± 0.092
DnaJ homolog subfamily B member 1 A41L, P25685 | -0.168 ± 0.066

Substance | abundance fitness
DnaJ homolog subfamily B member 1 A41M, P25685 | -0.214 ± 0.089
DnaJ homolog subfamily B member 1 A41N, P25685 | -0.164 ± 0.17
DnaJ homolog subfamily B member 1 A41P, P25685 | -0.432 ± 0.11
DnaJ homolog subfamily B member 1 A41Q, P25685 | -0.134 ± 0.077
DnaJ homolog subfamily B member 1 A41R, P25685 | -0.181 ± 0.07
DnaJ homolog subfamily B member 1 A41S, P25685 | -0.146 ± 0.072
DnaJ homolog subfamily B member 1 A41T, P25685 | -0.055 ± 0.068
DnaJ homolog subfamily B member 1 A41V, P25685 | -0.02 ± 0.075
DnaJ homolog subfamily B member 1 A41W, P25685 | -0.255 ± 0.064
DnaJ homolog subfamily B member 1 A41Y, P25685 | -0.631 ± 0.43
DnaJ homolog subfamily B member 1 A49C, P25685 | 0.049 ± 0.12
DnaJ homolog subfamily B member 1 A49D, P25685 | -0.086 ± 0.12
DnaJ homolog subfamily B member 1 A49E, P25685 | 0.126 ± 0.094
DnaJ homolog subfamily B member 1 A49F, P25685 | -0.358 ± 0.15
DnaJ homolog subfamily B member 1 A49G, P25685 | -0.187 ± 0.12
DnaJ homolog subfamily B member 1 A49H, P25685 | -0.132 ± 0.18
DnaJ homolog subfamily B member 1 A49I, P25685 | -0.304 ± 0.16
DnaJ homolog subfamily B member 1 A49K, P25685 | 0.13 ± 0.13
DnaJ homolog subfamily B member 1 A49L, P25685 | -0.75 ± 0.086
DnaJ homolog subfamily B member 1 A49N, P25685 | 0.115 ± 0.17
DnaJ homolog subfamily B member 1 A49P, P25685 | -0.743 ± 0.074
DnaJ homolog subfamily B member 1 A49Q, P25685 | -0.394 ± 0.086
DnaJ homolog subfamily B member 1 A49R, P25685 | 0.021 ± 0.082
DnaJ homolog subfamily B member 1 A49S, P25685 | -0.037 ± 0.074
DnaJ homolog subfamily B member 1 A49T, P25685 | 0.094 ± 0.099
